The source of these data is patent US8067371.

Usually Kd stands for a measure of binding affinity in units of concentration.

Assay [1] addresses RAGE 82G/82S on human mononuclear phagocytes of heterozygous subjects (human) (UniProt Q15109). As to the kind of experiment: cell-based or functional assay.
Assay [2] addresses human RAGE 82G (common allele, full-length) (human) (UniProt Q15109). As to the kind of experiment: cell-based or functional assay.
For assay [3], the target named is human RAGE 82S (variant allele, G82S) (human) (UniProt Q15109). As to the kind of experiment: cell-based or functional assay.
For assay [4], the target named is human RAGE 82G (common allele, full-length) (human) (UniProt Q15109). As to the kind of experiment: radioligand binding of 125I-EN-RAGE on stably transfected CHO cells, equilibrium analysis by Klotz and Hunston.
Assay [5] has as its target human RAGE 82S (variant allele, G82S) (human) (UniProt Q15109). Described as above.

B1: EN-RAGE (Extracellular Newly-Identified RAGE binding protein) (ligand, from a related filing)
chain: TKLEDHLEGIINIFHQYSVRVGHFDTLNKRELKQLITKELPKTLQNTKDQPTIDKIFQDLDADKDGAVSFEEFVVLVSRVLKTAHIDIHK
In the case of B1, in assay [1], the EN-RAGE-mediated MMP-9 activity, MPs bearing RAGE 82G/82S against RAGE 82G was found to be 1.9 fold; the IL-6 in EN-RAGE-stimulated MPs, RAGE 82G/82S compared with RAGE 82G was determined as 2.9 fold; the IL-6 in culture supernatant (ELISA), human MPs bearing RAGE 82G/82S exposed to EN-RAGE amounted to 160 pg/mL; the MMP-9 activity (zymography), human MPs bearing RAGE 82G/82S, EN-RAGE against baseline worked out at 4.3 fold. Further, in assay [1], the TNF-alpha in EN-RAGE-stimulated MPs, RAGE 82G/82S compared with RAGE 82G came out at 1.8 fold; the TNF-alpha in culture supernatant (ELISA), human MPs bearing RAGE 82G/82S exposed to EN-RAGE is 850 pg/mL; the phosphorylated MEK 1/2, human MPs, EN-RAGE against unstimulated cells turned out to be 4.5 fold; the phosphorylated p44 and p42 MAP kinases, human MPs, EN-RAGE against unstimulated cells came out at 4.3 fold. In addition, in assay [2], the IL-6 in culture supernatant (ELISA), human MPs bearing RAGE 82G exposed to EN-RAGE was determined as 55 pg/mL; the MMP-9 activity (zymography), human MPs bearing RAGE 82G, EN-RAGE against basal came to 2.3 fold; the NF-kB nuclear binding activity by EMSA, CHO transfectants, EN-RAGE against BSA is 2.4 fold; the TNF-alpha in culture supernatant (ELISA), human MPs bearing RAGE 82G exposed to EN-RAGE was 470 pg/mL. In assay [2], the activation of MEK 1/2, human MPs bearing RAGE 82G, EN-RAGE against unstimulated cells stood at 2.6 fold; the activation of p44/p42 MAP kinases, human MPs bearing RAGE 82G, EN-RAGE against unstimulated cells worked out at 2.3 fold; the phosphorylated MEK 1/2 by immunoblotting, CHO transfectants, EN-RAGE 10 ug/ml against BSA came out at 2.2 fold; the phosphorylated p44/42 MAP kinases by immunoblotting, CHO transfectants, EN-RAGE 10 ug/ml against BSA was found to be 1.9 fold. Besides, in assay [3], the NF-kB gel shift band intensity by EMSA, CHO transfectants, EN-RAGE against BSA came out at 5.1 fold; the RAGE-mediated NF-kB activation, RAGE 82S compared with 82G is 2.1 fold; the phosphorylated MEK 1/2 by immunoblotting, CHO transfectants, EN-RAGE 10 ug/ml against BSA stood at 3.6 fold; the phosphorylated p44/42 MAP kinases by immunoblotting, CHO transfectants, EN-RAGE 10 ug/ml against BSA stood at 4.1 fold. In assay [3], this molecule yielded a phosphorylation of MEK 1/2, CHO cells with RAGE 82S compared with RAGE 82G of 1.6 fold and a phosphorylation of p44/p42 MAP kinases, CHO cells with RAGE 82S compared with RAGE 82G of 2.2 fold. In assay [4], this molecule had a Kd of 0.122 µM. The Kd in assay [5] amounted to 0.077 µM.
